Measured values from patent US20240350596.

test system: ghrelin (acylated; [3H]-ghrelin labeled on the octanoic acid moiety of the acylated Ser3)

Going from “BChE-M02 (A199S/F227A/P285A/S287G/A328W/Y332G mutant of human BChE)” to Wild-type human BChE, the Relative catalytic efficiency for ghrelin (Relative to CocH3) (fold relative to CocH3) falls from 3 to 1.5.

Compared with BChE mutant A199S/S287G/A328W/Y332G, BChE mutant T284S/P285I/F398I is higher in Relative catalytic efficiency for ghrelin (Relative to CocH3) (fold relative to CocH3): 2 for the first, 3 for the second.

Going from “BChE mutant A199S/F227A/P285Q/S287G/A328W/Y332G” to BChE mutant F398I, the Relative catalytic efficiency for ghrelin (Relative to CocH3) (fold relative to CocH3) falls from 3 to 2.

BChE mutant T284S/P285I/V288I and BChE mutant T284S/P285I/V288I/F398I are the same in Relative catalytic efficiency for ghrelin (Relative to CocH3) (fold relative to CocH3): 3 for the first, 3 for the second.

Going from “BChE mutant A199S/F227A/P285S/S287G/A328W/Y332G” to “CocH3 (A199S/F227A/S287G/A328W/Y332G mutant of human BChE)”, the Relative catalytic efficiency for ghrelin (Relative to CocH3) (fold relative to CocH3) falls from 2 to 1.
